Assay results: patent US7265263B1, “Potato transcription factors, methods of use thereof, and a method for enhancing tuber development” (Iowa State University Research Foundation, Inc., priority 2002, dated 2007)
Entries after “also recorded” stand apart in the source; their conditions may differ.

B1: StBEL-22: BEL transcription factor from Solanum tuberosum, SEQ ID NO:10 (protein, listed as Solanum tuberosum)
chain: TSVYETAGLLSEMFNFQTTSTAATELLQNQLSNNYRHPNQQPHHQPPTREWFGNRQEIVVGGSLQVTFGDTKDDVNAKVLLSNRDSVTDYYQRQHNQVPSINTAESMQLFLMNPQPSSPSQSTPSTLHQGFSSPVGGHFSQFMCGGASTSSNPIGGVNVIDQGQGLSLSLSSTLQHLEASKVEDLRMNSGGEMLFFNQESQNHHNIGFGSSLGLVNVLRNSKYVKATQELLEEFCCVGKGQLFKKINKVSRNNNTSTSPIINPSGSNNNNSSSSKAIIPPNLSTAERLDHQRRKVKLLSMLDEVEKRYNHYCEQMQMVVNSFDLVMGFGAAVPYTALAQKAMSRHFKCLKDGVAAQLKKTCEALGEKDASSSSGLTKGETPRLKVLEQSLRQQRAFQQMGMMEQEAWRPQRGLPERSVNILRAWLFEHFLHPYPSDADKHLLARQTGLSRNQVANWFINARVRLWKPMVEEMYQREVNEDDVDDMQENQNSTNTQIPTPNIIITTNSNITETKSAATATIASDKKPQINVSEIDPSIVAMNTHYSSSMPTQLTNFPTIQDESDHILYRRSGAEYGTTNMASNSEIGSNMITFGTTTASDVSLTLGLRHAGNLPENTHFSG
B2: StBEL-11: BEL transcription factor from Solanum tuberosum, SEQ ID NO:4 (protein, listed as Solanum tuberosum)
chain: MTFRSSLPLDLREISTTNHQVGILSSSPLPSPGTNTNNINHTRGLGASSSFSISNGMILGSKYLKVAQDLLDEVVNVGKNIKLSDGLESGAKEKHKLDNELISLASDDVESSSQKNSGVELTTAQRQELQMKKAKLVSMLDEVDQRYRQYHHQMQMIATSFEQTTGIGSSKSYTQLALHTISKQFRCLKDAISGQIKDTSKTLGEEENIGGKIEGSKLKFVDHHLRQQRALQQLGMMQTNAWKPQRGLPERAVSVLRAWLFEHFLHPYPKDSDKIILAKQTGLTRSQVSNWFINARVRLWKPMVEEMYMEEVKKNNQEQNIEPNNNEIVGSKSSVPQEKLPISSNIIHNASPNDISTSTISTSPTGGGGSIPTQTVAGFSFIRSLNMENIDDQRNNKKARNEMQNCSTSTILSMEREIINKVVQDETIKSEKFNNTQTRECYSLMTPNYTMDDQFGTRFNNQNHEQLATTTTFHQGNGHVSLTLGLPPNSENQHNYIGLENHYNQPTHHPNISYENIDFQSGKRYATQLLQDFVS
B3: pAD5-9: StBEL-05 deletion construct, aa 1 through 315 (protein)
chain: MNPNNYMQGYTTSDTQQQQQLLFLNSSPAASNALCHANIQHAPLQQQHFVGVPLPAVSLHDQINHHGLLQRMWNNQDQSQQVIVPSSTGVSATSCGGITTDLASQLAFQRPIPTPQHRQQQQQQGGLSLSLSPQLQQQISFNNNISSSSPRTNNVTIRGTLDGSSSNMVLGSKYLKAAQELLDEVVNIVGKSIKGDDQKKDNSMNKESMPLASDVNTNSSGGGESSSRQKNEVAVELTTAQRQELQMKKAKLLAMLEEVEQRYRQYHHQMQIIVLSFEQVAGIGSAKSYTQLALHAISKQFRCLKDAIAEQVKAT
modifications: left off: large carriers
B4: StBEL-29: BEL transcription factor from Solanum tuberosum, SEQ ID NO:12 (protein, listed as Solanum tuberosum)
chain: QGLSLSLSSSQQPGFGNFTAARELVSSPSGSASASGIQQQQQQQQSISSVPLSSKYMKAAQELLDEVVNVGKSMKSTNSTDVVVNNDVKKSKNMGDMDGQLDGVGADKDGAPTTELSTGERQEIQMKKAKLVNMLDEVEQRYRHYHHQMQSVIHWLEQAAGIGSAKTYTALALQTISKQFRCLKDAIIGQIRSASQTLGEEDSLGGKIEGSRLKFVDNQLRQQRALQQLGMIQHNAWRPQRGLPERAVSVLRAWLFEHFLHPYPKDSDKMMLAKQTGLTRSQVSNWFINARVRLWKPMVEEMYLEEIKEHEQNGLGQEKTSKLGEQNEDSTTSRSIATQDKSPGSDSQNKSFVSKQDNHLPQHNPASPMPDVQRHFHTPIGMTIRNQSAGFNLIGSPEIESINITQGSPKKPRNNEMLHSPNSIPSINMDVKPNEEQMSMKFGDDRQDRDGFSLMGGPMNFMGGFGAYPIGEIARFSTEQFSAPYSTSGTVSLTLGLPHNENLSMSATHHSFLPIPTQNIQIGSEPNHEFGSLNTPTSAHSTSSVYETFNIQNRKRFAAPLLPDFVA
B5: StBEL-14: BEL transcription factor from Solanum tuberosum, SEQ ID NO:8 (protein, listed as Solanum tuberosum)
chain: MVNHQLQNFETNPEMYNLSSTTSSMDQMIGFPPNNNNPHHVLWKGNFPNKINGVDDDDHGPSSSKNIISEQFYQHGSHENMLTTTTTHHDDHQGSWHHDNNRTLLVDDPSMRCVFPCEGNERPSHGLSLSLCSSNPSSIGLQSFELRHQDLQQGLIHDGFLGKSTNIQQGYFHHHHQVRDSKYLGPAQELLSEFCSLGIKKNNDHSSSKVLLKQHESTASTSKKQLLQSLDLLELQKRKTKLLQMLEEVDRRYKHYCDQMKAVVSSFEAVAGNGAATVYSALASRAMSRHFRCLRDGIVAQIKATKMAMGEKDSTSTLIPGSTRGETPRLRLLDQTLRQQKAFQQMNMMETHPWRPQRGLPERSVSVLRAWLFEHFLHPYPSDVDKHILARQTGLSRSQVSNWFINARVRLWKPMVEEMYLEETKEEENVGSPDGSKALIDDMTIHQSHIDHHQADQKPNLVRIDSECISSIINHQPHEKNDQNYGVIRGGDQSFGAIELDFSTNIAYGTSGGDHHHHGGGVSLTLGLQQHGGSGGSSMGLTTFSSQPSHNQSSLFYPRDDDQVQYSSLLDSENQNLPYRNLDGGTTSS

How the values were obtained:
[1] = test system: POTH1 overexpression lines; experiment: Exogenous GA3 application to POTH1 overexpression lines; format: in vivo, Solanum tuberosum
Text: Many of the traits of the phenotypes observed in POTH1 overexpression lines were similar to GA-deficient mutants. These similarities included decreased plant height, decreased internode length, and darker green coloration of the leaves (van den Berg et al., “Morphology and [^14C]Gibberellin A12 Metabolism in Wild-Type and Dwarf Solanum Tuberosum ssp. Andigena Grown Under Long and Short Photoperiods,” J. Plant Physiol. 146:467-473 (1995), which is hereby incorporated by reference in its entirety). Because of this, exogenous GA3 was applied to determine whether the overexpression lines were responsive to GA treatment. The shoot apex of overexpression lines was sprayed to runoff with 10 μM GA3 in 0.002% (v/v) ethanol or with 0.002% (v/v) ethanol alone. […] Palisade and spongy parenchyma organization is partially rescued in leaves from line 15 treated with GA3 (FIG. 5G). The GA3-treated leaf (FIG. 5J) of the severe mutant, line 15, is more similar in morphology to the wild-type leaf (FIG. 5K). Leaflets are more ovate in form rather than the typical mouse-ear shape. Wild-type leaves have a prominent mid-vein (FIG. 5L), whereas the mid-vein (FIG. 5M, arrow) is more prominent in the mutant GA3-treated leaf than in the mutant untreated leaf (FIG. 5N). […]

POTH1 = experiment: Yeast two-hybrid interaction with POTH1; format: binding, Solanum tuberosum; details: nutritional selection and lacZ activation, yeast AH109
Text: The Matchmaker two-hybrid system (Clontech, Calif.) was used for the yeast two-hybrid screen. Yeast transformation and plasmid rescue into DH5-α E. coli cells were according to the manufacturer's instructions. Full-length POTH1 was cloned into the pBridge (Clontech, Calif.) vector and used as bait to screen the potato (S. tuberosum ‘Desireé’) stolon cDNA library in pAD-GAL4-2.1 (Stratagene, Calif.). Positive interactions were confirmed by cotransforming yeast strain AH109 with each purified pAD plasmid and pBridge: POTH1 and plating on -leucine/-tryptophan (transformation control) and -leucine/-tryptophan/-histidine/-adenine (selection) nutrient medium. Induction of the AH109 reporter gene, lacZ, was measured with a yeast β-galactosidase assay kit (Pierce Chemicals). β-galactosidase activity (FIG. 9B) was determined from a known density of yeast cells and calculated as 1000×OD420/time of color reaction (minutes)×volume of yeast culture (ml)×OD600.
The StBEL-05 deletion constructs were amplified by PCR, then cloned into the vector, pGAD, in-frame with the GAL4 activation domain. POTH1 deletion constructs were amplified by PCR, and cloned into pBridge (Clontech) in-frame with the GAL4 binding domain. Sequencing of selected cDNAs and constructs was performed at the Iowa State University DNA Facility. For deletion analysis, modified constructs of POTH1 were cloned into the pBridge vector for fusion with the DNA-binding domain of GAL4 (FIG. 10A). For StBEL-05, constructs were cloned into the pGAD vector for fusion with the activating domain of GAL4 (FIG. 10B). Deletion constructs were made from both the amino and carboxy termini. These mutants were then tested for interaction in the yeast two-hybrid system by cotransforming into yeast strain AH109 with the corresponding full-length partner (StBEL-05 in pGAL4 or POTH1 in pBridge). All constructs were sequenced to verify that they were in-frame. Positive interactions were verified for lacZ induction by using a β-galactosidase assay (Pierce Chemical Company). For POTH1, seven deletion constructs were tested (FIG. 10A). For the BEL TFs, a fusion construct of StBEL-05 (653 aa of StBEL-05 sequence) and nine deletion constructs were tested (FIG. 10B).

POTH1, sequence (as listed by the source): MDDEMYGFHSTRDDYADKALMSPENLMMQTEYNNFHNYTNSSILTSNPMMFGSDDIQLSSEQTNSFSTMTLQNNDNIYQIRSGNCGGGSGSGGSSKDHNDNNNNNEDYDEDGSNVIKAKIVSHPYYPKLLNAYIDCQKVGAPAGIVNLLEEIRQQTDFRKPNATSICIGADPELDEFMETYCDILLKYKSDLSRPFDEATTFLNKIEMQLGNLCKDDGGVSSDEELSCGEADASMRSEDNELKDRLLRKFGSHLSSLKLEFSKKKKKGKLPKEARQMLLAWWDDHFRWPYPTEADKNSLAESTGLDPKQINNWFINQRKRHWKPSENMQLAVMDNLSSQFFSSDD

Molecule	effect on leaf morphology ([1]; 10 μM GA3 sprayed on shoot apex)	effect on dwarf phenotype ([1]; GA3 application)	interaction with POTH1 (POTH1)
C=C1C[C@]23C[C@@]1(O)CC[C@H]2[C@@]12C=C[C@H](O)[C@@](C)(C(=O)O1)[C@H]2[C@@H]3C(=O)O [GA3]	partially rescued the leaf morphology of both severe and intermediate phenotypes; also recorded: partial reversal of the leaf phenotype	completely rescued the dwarf phenotype	–
B1	–	–	showed selective interaction
B2	–	–	showed selective interaction
B3	–	–	demonstrated an interaction; also recorded: interaction with POTH1
B4	–	–	showed selective interaction
B5	–	–	showed selective interaction
